The labels stand for the following.
B1: canine IgG.B Fc (CH2-CH3) variant E380A (Fc fusion)
chain: APEMLGGPSVFIFPPKPKDTLLIARTPEVTCVVVDLDPEDPEVQISWFVDGKQMQTAKTQPREEQFNGTYRVVSVLPIGHQDWLKGKQFTCKVNNKALPSPIERTISKARGQAHQPSVYVLPPSREELSKNTVSLTCLIKDFFPPDIDVAWQSNGQQEPESKYRTTPPQLDEDGSYFLYSKLSVDKSRWQRGDTFICAVMHEALHNHYTQESLSHSPGK
B2: canine IgG.B Fc (CH2-CH3) variant T256A (Fc fusion)
chain: B1 chain with T26A, A150E
B3: canine IgG.B Fc (CH2-CH3) variant G309A (Fc fusion)
chain: B1 chain with G79A, A150E
B4: canine IgG.B Fc (CH2-CH3) variant M428A (Fc fusion)
chain: B1 chain with A150E, M200A
B5: canine IgG.B Fc (CH2-CH3) variant H433A (Fc fusion)
chain: B1 chain with A150E, H205A
B6: canine IgG.B Fc (CH2-CH3) variant I308A (Fc fusion)
chain: B1 chain with I78A, A150E
B7: canine IgG.B Fc (CH2-CH3) variant P307A (Fc fusion)
chain: B1 chain with P77A, A150E
B8: canine IgG.B Fc (CH2-CH3) variant Q311A (Fc fusion)
chain: B1 chain with Q81A, A150E
B9: canine IgG.B Fc (CH2-CH3) variant K315A (Fc fusion)
chain: B1 chain with K85A, A150E
B10: canine IgG.B Fc (CH2-CH3) variant A254S (Fc fusion)
chain: B1 chain with A24S, A150E
B11: canine IgG.B Fc (CH2-CH3) variant L252A (Fc fusion)
chain: B1 chain with L22A, A150E
B12: canine IgG.B Fc (CH2-CH3) variant Q285A (Fc fusion)
chain: B1 chain with Q55A, A150E
B13: canine IgG.B Fc (CH2-CH3) variant Y436A (Fc fusion)
chain: B1 chain with A150E, Y208A
B14: canine IgG.B Fc (CH2-CH3) variant T250A (Fc fusion)
chain: B1 chain with T20A, A150E
B15: canine IgG.B Fc (CH2-CH3) variant N434A (Fc fusion)
chain: B1 chain with A150E, N206A
B16: canine IgG.B Fc (CH2-CH3) variant D378A (Fc fusion)
chain: B1 chain with D148A, A150E
B17: canine IgG.B Fc (CH2-CH3) variant T286A (Fc fusion)
chain: B1 chain with T56A, A150E
B18: canine IgG.B Fc (CH2-CH3) variant T250E (Fc fusion)
chain: B1 chain with T20E, A150E
B19: canine IgG.B Fc (CH2-CH3) variant T250Q (Fc fusion)
chain: B1 chain with T20Q, A150E
B20: canine IgG.B Fc (CH2-CH3) variant L252M (Fc fusion)
chain: B1 chain with L22M, A150E
B21: canine IgG.B Fc (CH2-CH3) variant L252Y (Fc fusion)
chain: B1 chain with L22Y, A150E
B22: canine IgG.B Fc (CH2-CH3) variant A254T (Fc fusion)
chain: B1 chain with A24T, A150E
B23: canine IgG.B Fc (CH2-CH3) variant G309P (Fc fusion)
chain: B1 chain with G79P, A150E
B24: canine IgG.B Fc (CH2-CH3) variant Q311V (Fc fusion)
chain: B1 chain with Q81V, A150E
B25: canine IgG.B Fc (CH2-CH3) variant D378V (Fc fusion)
chain: B1 chain with D148V, A150E
B26: canine IgG.B Fc (CH2-CH3) variant N434Y (Fc fusion)
chain: B1 chain with A150E, N206Y
B27: canine IgG.B Fc (CH2-CH3) variant N434W (Fc fusion)
chain: B1 chain with A150E, N206W
B28: canine IgG.B Fc (CH2-CH3) variant N434S (Fc fusion)
chain: B1 chain with A150E, N206S
B29: canine IgG.B Fc (CH2-CH3) variant N434R (Fc fusion)
chain: B1 chain with A150E, N206R
B30: canine IgG.B Fc (CH2-CH3) YTE variant (L252Y/A254T/T256E) (Fc fusion)
chain: B1 chain with L22Y, A24T, T26E, A150E
B31: canine IgG.B Fc (CH2-CH3) variant N434H (Fc fusion)
chain: B1 chain with A150E, N206H

Numbering of substitutions follows the chain as printed. Numbers in names are those of the source. Where “and” joins values, the source holds several entries; their conditions need not be identical. Identical values can stand only once.

The first experiment has as its target T1, canine FcRn (UniProtKB-E2ROL6 [FcRn] and UniProtKB-E2RN10 [canine beta-2-microglobulin]) (canine).
T1 construct: Soluble analyte injected in SPR
In words: SPR Biacore 8K, pH 5.5, Fc captured on BSA via SASA tag, FcRn 400 nM.
On to B1, for which the Kd is 618 nM and 747 nM; the off-rate (koff) is 0.369 s⁻¹ and 0.18 s⁻¹; the kon was 598000 M⁻¹ s⁻¹ and 241000 M⁻¹ s⁻¹.

Consider B2, for which the Kd was 447 nM and 298 nM.

For B3, the Kd was 245 nM and 294 nM.

In the case of B4, the Kd is 723 nM and 1670 nM; the on-rate constant (kon) is 234000 M⁻¹ s⁻¹ and 318000 M⁻¹ s⁻¹.

As for B5, the Kd is 266 nM and 359 nM; the dissociation rate constant (koff) was 0.229 s⁻¹ and 0.0997 s⁻¹.

Regarding B6, the Kd was 472 nM and 563 nM; the koff is 0.169 s⁻¹ and 0.194 s⁻¹; the on-rate constant (kon) was 357000 M⁻¹ s⁻¹ and 345000 M⁻¹ s⁻¹.

As for B7, the Kd is 325 nM and 338 nM.

As to B8, the dissociation constant Kd was 368 nM and 370 nM; the koff was 0.894 s⁻¹ and 0.496 s⁻¹; the kon is 2.43e+06 M⁻¹ s⁻¹ and 1.34e+06 M⁻¹ s⁻¹.

With B9, the Kd was 422 nM and 548 nM.

For the molecule B10, the Kd is 340 nM and 317 nM.

For the molecule B11, the Kd is 292 nM and 240 nM.

Regarding B12, the Kd is 341 nM and 257 nM.

Consider B13, for which the dissociation constant Kd is 393 nM and 876 nM; the koff is 0.407 s⁻¹ and 0.213 s⁻¹.

As to B14, the Kd is 335 nM and 328 nM.

For B15, the Kd was 457 nM and 494 nM; the koff was 0.237 s⁻¹ and 0.477 s⁻¹; the kon was 518000 M⁻¹ s⁻¹ and 966000 M⁻¹ s⁻¹.

For the molecule B16, the Kd was 673 nM and 592 nM; the off-rate (koff) was 0.183 s⁻¹ and 0.181 s⁻¹; the kon is 272000 M⁻¹ s⁻¹ and 306000 M⁻¹ s⁻¹.

Take B17: the Kd is 464 nM and 569 nM; the koff is 0.196 s⁻¹ and 0.304 s⁻¹; the on-rate constant (kon) is 422000 M⁻¹ s⁻¹ and 533000 M⁻¹ s⁻¹.

Another experiment addresses T1, canine FcRn (UniProtKB-E2ROL6 [FcRn] …). The experiment is described as follows: SPR Biacore 8K, pH 5.5, Fc captured on BSA via SASA tag, FcRn 200 nM.
As for B18, the Kd was 2480 nM and 1660 nM; the dissociation rate constant (koff) is 0.284 s⁻¹ and 0.287 s⁻¹; the kon was 114000 M⁻¹ s⁻¹ and 172000 M⁻¹ s⁻¹.

Turning to B19, the Kd was 2590 nM and 2840 nM; the dissociation rate constant (koff) is 0.258 s⁻¹ and 0.268 s⁻¹; the kon was 99600 M⁻¹ s⁻¹ and 94300 M⁻¹ s⁻¹.

A further experiment has the same target. Described as above. This is another data set of the same source.
With B20, the Kd was 869 nM and 774 nM; the koff was 0.168 s⁻¹ and 0.169 s⁻¹; the on-rate constant (kon) is 193000 M⁻¹ s⁻¹ and 218000 M⁻¹ s⁻¹.

For the molecule B21, the equilibrium dissociation constant (Kd) is 98.7 nM and 114 nM; the koff is 0.0397 s⁻¹ and 0.041 s⁻¹; the kon was 402000 M⁻¹ s⁻¹ and 358000 M⁻¹ s⁻¹.

The target is the same in the next experiment. The experiment is described as above. The source holds these as a separate data set.
Consider B22, for which the Kd was 2290 nM and 1340 nM; the koff was 0.375 s⁻¹ and 0.433 s⁻¹; the on-rate constant (kon) was 163000 M⁻¹ s⁻¹ and 323000 M⁻¹ s⁻¹.

For the next experiment the target is unchanged. The description is as above. The source holds these as a separate data set.
B23: the Kd is 635 nM and 434 nM and 637 nM and 718 nM; the koff is 0.239 s⁻¹ and 0.242 s⁻¹ and 0.132 s⁻¹ and 0.145 s⁻¹; the on-rate constant (kon) is 377000 M⁻¹ s⁻¹ and 558000 M⁻¹ s⁻¹ and 207000 M⁻¹ s⁻¹ and 202000 M⁻¹ s⁻¹.

The next experiment has the same target. The experiment is described as above. The source holds these as a separate data set.
B24: the Kd was 372 nM and 439 nM; the koff was 0.566 s⁻¹ and 0.696 s⁻¹; the kon was 1.52e+06 M⁻¹ s⁻¹ and 1.59e+06 M⁻¹ s⁻¹.

For a further experiment the target is unchanged. Described as above. The source holds these as a separate data set.
Regarding B25, the Kd was 693 nM and 873 nM; the koff is 0.159 s⁻¹ and 0.16 s⁻¹; the kon is 229000 M⁻¹ s⁻¹ and 184000 M⁻¹ s⁻¹.

A further experiment has the same target. The description is as above. The source holds these as a separate data set.
Regarding B1, the Kd is 1320 nM and 1570 nM; the koff is 0.223 s⁻¹ and 0.239 s⁻¹; the kon was 168000 M⁻¹ s⁻¹ and 152000 M⁻¹ s⁻¹.

For the next experiment the target is unchanged. Described as above. The source holds these as a separate data set.
On to B26, for which the Kd was determined as 15.9 nM, the koff amounted to 0.00968 s⁻¹ and the on-rate (kon) amounted to 607000 M⁻¹ s⁻¹.

As for B27, the dissociation constant Kd is 40.4 nM and 75.7 nM.

For B28, the Kd is 924 nM and 1050 nM; the koff is 0.207 s⁻¹ and 0.209 s⁻¹; the kon was 225000 M⁻¹ s⁻¹ and 199000 M⁻¹ s⁻¹.

In the case of B15, the Kd is 573 nM and 629 nM; the koff was 0.156 s⁻¹ and 0.164 s⁻¹; the kon was 272000 M⁻¹ s⁻¹ and 261000 M⁻¹ s⁻¹.

With B29, the Kd was 107 nM and 159 nM; the koff was 0.0524 s⁻¹ and 0.0633 s⁻¹; the kon was 488000 M⁻¹ s⁻¹ and 399000 M⁻¹ s⁻¹.

The target is the same in another experiment. In words: SPR Biacore 8K, pH 5.5, Fc captured on BSA via SASA tag, FcRn 100-800 nM.
For B26, the Kd came out at 29.1 nM, the off-rate constant (koff) worked out at 0.0151 s⁻¹ and the kon came to 520000 M⁻¹ s⁻¹.

The molecule B30 came in with a Kd of 184 nM, a koff of 0.046 s⁻¹ and a kon of 250000 M⁻¹ s⁻¹.

B27 yielded a Kd of 101 nM, a koff of 0.045 s⁻¹ and an association rate constant (kon) of 446000 M⁻¹ s⁻¹.

Molecule B21 had an equilibrium dissociation constant (Kd) of 173 nM, a dissociation rate constant (koff) of 0.0476 s⁻¹ and a kon of 275000 M⁻¹ s⁻¹.

The molecule B31 gave a Kd of 247 nM, a koff of 0.102 s⁻¹ and an association rate constant (kon) of 411000 M⁻¹ s⁻¹.

For B29, binding was characterised by a dissociation constant (Kd) of 182 nM, the koff worked out at 0.0801 s⁻¹ and the kon was determined as 440000 M⁻¹ s⁻¹.

The record behind these values is patent US20200216536A1 (published 2020).
